The source of these data is patent US12246062B2, “Recombinant human acid alpha-glucosidase” (Amicus Therapeutics, Inc., priority 2017, dated 2025).

Marks after values point to notes of the source that are not given here.

A short description of data set [1]: Thermostability assay using SYPRO Orange. The format is physicochemical. The method, then:
The stability of ATB200 in acidic or neutral pH buffers was evaluated in a thermostability assay using SYPRO Orange, as the fluorescence of the dye increases when proteins denature. […] As summarized in Table 6, the addition of AT2221 increased the melting temperature (Tm) of ATB200 by nearly 10° C.

Data set [2] has as its target T1, CIMPR (Homo sapiens, UniProt P11717). Kind of data set: CIMPR affinity chromatography. It is filed as binding. As to conditions: CIMPR affinity column; fraction of total enzyme by GAA activity. From the text:
Multiple batches of the rhGAA according to the invention were produced in shake flasks and in perfusion bioreactors using CHO cell line GA-ATB200, the product of which is referred to as “ATB200.” Weak anion exchange (“WAX”) liquid chromatography was used to fractionate ATB200 rhGAA according to terminal phosphate and sialic acid. Elution profiles were generated by eluting the ERT with increasing amount of salt. The profiles were monitored by UV (A280 nm).
To evaluate the ability of the conventional rhGAAs in Myozyme® and Lumizyme® to interact with the CIMPR, the two conventional rhGAA preparations were injected onto a CIMPR affinity column (which binds rhGAA having M6P groups) and the flow through collected. The bound material was eluted with a free M6 gradient. Fractions were collected in 96-well plate and GAA activity assayed by 4MU-α-glucosidase substrate. The relative amounts of unbound (flow through) and bound (M6P eluted) rhGAA were determined based on GAA activity and reported as the fraction of total enzyme. […] Indeed, only 27% of the rhGAA in Myozyme® and 22% of the rhGAA in Lumizyme® contained M6P that can be productive to target it to the CIMPR on muscle cells.

For data set [3], the system named is normal and Pompe fibroblast cell lines. In words: Cellular uptake of rhGAA in fibroblasts. As to conditions: for concentration that saturates cellular receptors: 16-hr incubation, internalized GAA by 4MU-α-Glucoside hydrolysis; for uptake efficiency constant (Kuptake): extrapolated from uptake results. It is filed as cell-based. The procedure:
The relative cellular uptake of ATB200 and Lumizyme® rhGAA were compared using normal and Pompe fibroblast cell lines. Comparisons involved 5-100 nM of ATB200 according to the invention with 10-500 nM conventional rhGAA product Lumizyme® After 16-hr incubation, external rhGAA was inactivated with TRIS base and cells were washed 3-times with PBS prior to harvest. Internalized GAA measured by 4MU-α-Glucoside hydrolysis and was graphed relative to total cellular protein and the results appear in FIGS. 11A-11C.
ATB200 was also shown to be efficiently internalized into cells. […] ATB200 saturates cellular receptors at about 20 nM, while about 250 nM of Lumizyme® is needed to saturate cellular receptors.

Data set [4] deals with Gaa KO mice. Kind of data set: Single fiber analysis, LAMP1/LC3 co-immunofluorescence. The format is in vivo. From the text: FIG. 17 depicts co-immunofluorescent staining of LAMP1 (green) (see for example, “B”) and LC3 (red) (see, for example, “A”) in single fibers isolated from the white gastrocnemius of Gaa KO mice treated with a vehicle, alglucosidase alfa, or ATB200. “C” depicts clearance of autophagic debris and absence of enlarged lysosome. A minimum of 30 fibers were examined from each animal.
As a result, a significant portion of muscle fibers analyzed (36-60%) from ATB200-treated mice appeared normal or near-normal.

On the set-up of data set [5]: species or system human. As to conditions: in vivo. The method, then:
Preclinical studies were conducted in Gaa knockout mice to evaluate the pharmacokinetics (PK) and efficiency of glycogen reduction at varying ATB200 enzyme replacement therapy (ERT) and AT2221 chaperone doses. […] Study ATB200-02 (NCT02675465) was then designed as an open-label fixed-sequence, ascending dose, first-in-human, phase 1/2 study to evaluate the safety, tolerability, PK, pharmacodynamics (PD), and efficacy of ATB200 co-administered with AT2221 in patients with Pompe disease. FIGS. 19A-19B present the ATB200-02 study design. Ambulatory patients who have previously received enzyme replacement therapy with alglucosidase alfa are referred to as ambulatory ERT-switch (or ERT-switch ambulatory) patients or Cohort 1 patients. Nonambulatory patients who have previously received enzyme replacement therapy with alglucosidase alfa are referred to as nonambulatory ERT-switch (or ERT-switch nonambulatory) patients or Cohort 2 patients. Ambulatory patients who have not previously received enzyme replacement therapy with alglucosidase alfa are referred to as ERT-naïve (or ERT-naïve ambulatory) patients or Cohort 3 patients. Total GAA protein concentrations in plasma for ATB200 at 5 mg/kg, 10 mg/kg, and 20 mg/kg were determined by validated LC-MS/MS quantification of rhGAA-specific “signature” peptide(s) […] (primary) and T50 (confirmatory) for 11 Cohort 1 patients who completed Stages 1 and 2, as well as for five Cohort 2 patients who completed the PK study in Stage 3. For Stage 1, blood samples for plasma total GAA protein concentration were collected prior to the start of ATB200 infusion and at 1, 2, 3, 3.5, 4, 4.5, 5, 6, 8, 10, 12, and 24 hour(s) after the start of infusion. For Stage 2 and Stage 3, blood samples for plasma total GAA protein concentration were collected prior to the start of infusion and at 1, 2, 3, 3.5, 4, 4.5, 5, 6, 8, 10, 12, and 24 hour(s) after the start of infusion.

The target in data set [6] is T1, CIMPR. Kind of data set: CIMPR plate binding assay. The procedure: In addition to having a greater percentage of rhGAA that can bind to the CIMPR, it is important to understand the quality of that interaction. Lumizyme® and ATB200 receptor binding was determined using a CIMPR plate binding assay. Briefly, CIMPR-coated plates were used to capture GAA. Varying concentrations of rhGAA were applied to the immobilized receptor and unbound rhGAA was washed off. The amount of remaining rhGAA was determined by GAA activity. […] For Lumizyme®, there is on average only 10% of molecules having a bis-phosphorylated N-glycan. In contrast, on average every rhGAA molecule in ATB200 has at least one bis-phosphorylated N-glycan.
N-glycan analysis via MALDI-TOF mass spectrometry confirmed that on average each ATB200 molecule contains at least one natural bis-M6P N-glycan structure.

Data set [7] concerns Gaa KO mice. In words: Muscle fiber biomarkers LAMP1, LC3, dysferlin. It is filed as in vivo. The procedure:
The therapeutic effects of ATB200 and AT2221 were evaluated and compared against those of Alglucosidase alfa in Gaa KO mice. For the study, male Gaa KO (3- to 4-month old) and age-matched wild-type (WT) mice were used. Alglucosidase alfa was administered via bolus tail vein intravenous (IV) injection. In the co-administration regimen, AT2221 was administered via oral gavage (PO) 30 minutes prior to the IV injection of ATB200. Treatment was given biweekly. Treated mice were sacrificed after 14 days from the last administration and various tissues were collected for further analysis. Table 7 summarizes the study design:
Tissue samples were also analyzed for biomarker changes following the methods discussed in: Khanna R, et al. (2012), “The pharmacological chaperone AT2220 increases recombinant human acid α-glucosidase uptake and glycogen reduction in a mouse model of Pompe disease,” Plos One 7(7): e40776; and Khanna. […]
Similarly, intense LC3-positive aggregates in the muscle fibers of untreated Gaa KO mice signify the presence of autophagic zones and autophagy build-up. […] A similar observation was made when the expression of LC3 was assessed using western blot. […]
Dysferlin, a protein involved in membrane repair and whose deficiency/mistrafficking is associated with a number of muscular dystrophies, w as also assessed.

Setting [8] is: single fibers from white gastrocnemius.

T1 sequence (P11717 41-2491, species assumed): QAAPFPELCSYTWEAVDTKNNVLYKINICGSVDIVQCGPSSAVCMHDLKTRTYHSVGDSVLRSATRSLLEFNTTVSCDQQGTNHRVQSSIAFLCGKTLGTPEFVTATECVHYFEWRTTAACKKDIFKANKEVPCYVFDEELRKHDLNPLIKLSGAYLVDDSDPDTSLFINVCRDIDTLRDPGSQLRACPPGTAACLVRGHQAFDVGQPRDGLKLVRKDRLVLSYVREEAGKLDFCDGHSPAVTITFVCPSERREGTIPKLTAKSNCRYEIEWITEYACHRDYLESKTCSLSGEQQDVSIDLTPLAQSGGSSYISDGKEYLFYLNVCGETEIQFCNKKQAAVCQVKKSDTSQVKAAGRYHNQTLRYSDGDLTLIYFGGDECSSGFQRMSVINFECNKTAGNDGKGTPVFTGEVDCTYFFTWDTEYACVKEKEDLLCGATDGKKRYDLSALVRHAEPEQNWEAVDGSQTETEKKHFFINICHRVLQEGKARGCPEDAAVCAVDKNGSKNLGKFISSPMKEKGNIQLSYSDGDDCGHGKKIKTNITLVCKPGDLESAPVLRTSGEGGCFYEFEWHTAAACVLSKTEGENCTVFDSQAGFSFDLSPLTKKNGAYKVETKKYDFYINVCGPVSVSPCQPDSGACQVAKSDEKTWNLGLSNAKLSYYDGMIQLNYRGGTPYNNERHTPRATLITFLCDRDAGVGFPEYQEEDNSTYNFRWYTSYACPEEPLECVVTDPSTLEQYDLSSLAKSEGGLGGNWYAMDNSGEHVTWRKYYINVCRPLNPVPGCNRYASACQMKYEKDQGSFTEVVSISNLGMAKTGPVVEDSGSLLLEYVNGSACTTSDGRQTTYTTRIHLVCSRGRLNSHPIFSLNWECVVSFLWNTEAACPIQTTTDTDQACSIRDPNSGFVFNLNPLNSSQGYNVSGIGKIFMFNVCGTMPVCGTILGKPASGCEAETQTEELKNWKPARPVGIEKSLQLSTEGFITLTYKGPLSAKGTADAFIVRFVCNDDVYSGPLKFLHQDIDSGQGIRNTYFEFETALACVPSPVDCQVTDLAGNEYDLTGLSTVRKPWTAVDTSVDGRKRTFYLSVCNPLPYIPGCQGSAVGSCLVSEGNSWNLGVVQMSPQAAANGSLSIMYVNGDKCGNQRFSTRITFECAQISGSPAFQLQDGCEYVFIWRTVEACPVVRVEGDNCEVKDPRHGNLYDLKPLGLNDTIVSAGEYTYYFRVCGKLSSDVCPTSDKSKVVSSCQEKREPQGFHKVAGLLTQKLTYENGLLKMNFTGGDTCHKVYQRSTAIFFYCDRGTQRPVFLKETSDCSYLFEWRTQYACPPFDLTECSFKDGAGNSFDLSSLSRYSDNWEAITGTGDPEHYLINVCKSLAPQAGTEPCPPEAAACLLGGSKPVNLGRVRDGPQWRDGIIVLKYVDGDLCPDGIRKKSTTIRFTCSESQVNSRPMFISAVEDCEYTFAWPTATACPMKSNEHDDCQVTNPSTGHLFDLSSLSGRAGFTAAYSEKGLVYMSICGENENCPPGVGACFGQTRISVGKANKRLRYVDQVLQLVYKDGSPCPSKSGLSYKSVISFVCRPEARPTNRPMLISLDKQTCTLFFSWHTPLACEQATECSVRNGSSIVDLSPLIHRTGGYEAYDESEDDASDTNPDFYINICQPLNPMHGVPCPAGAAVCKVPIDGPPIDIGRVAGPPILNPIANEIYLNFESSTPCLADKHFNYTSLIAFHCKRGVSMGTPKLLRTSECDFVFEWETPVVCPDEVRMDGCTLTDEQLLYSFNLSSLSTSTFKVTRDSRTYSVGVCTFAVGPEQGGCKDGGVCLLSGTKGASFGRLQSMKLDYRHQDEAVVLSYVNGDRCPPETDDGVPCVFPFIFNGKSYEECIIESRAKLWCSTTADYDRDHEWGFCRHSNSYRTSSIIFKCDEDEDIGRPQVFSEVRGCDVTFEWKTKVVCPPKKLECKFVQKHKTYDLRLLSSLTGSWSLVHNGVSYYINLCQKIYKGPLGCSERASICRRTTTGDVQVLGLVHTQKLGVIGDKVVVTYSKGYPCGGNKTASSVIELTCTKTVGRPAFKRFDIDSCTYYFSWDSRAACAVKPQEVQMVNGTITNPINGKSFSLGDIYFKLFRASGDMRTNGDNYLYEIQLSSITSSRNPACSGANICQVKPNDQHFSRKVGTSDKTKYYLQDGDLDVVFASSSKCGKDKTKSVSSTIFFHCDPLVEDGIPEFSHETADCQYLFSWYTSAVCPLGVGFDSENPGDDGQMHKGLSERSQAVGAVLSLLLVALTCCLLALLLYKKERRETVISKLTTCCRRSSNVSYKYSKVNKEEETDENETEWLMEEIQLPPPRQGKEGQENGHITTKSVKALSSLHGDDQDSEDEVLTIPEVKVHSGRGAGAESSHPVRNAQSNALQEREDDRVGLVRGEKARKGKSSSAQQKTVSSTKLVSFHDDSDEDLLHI

For `CCCCN1C[C@H](O)[C@@H](O)[C@H](O)[C@H]1CO` [AT2221, (2R,3R,4R,5S)-1-butyl-2-(hydroxymethyl)piperidine-3,4,5-triol, reference compound], the “stabilization of ATB200” value in data set [1] (pH 7.4) is “stabilized ATB200 at pH 7.4 in a concentration-dependent manner”.

Regarding “Lumizyme®: conventional rhGAA product containing alglucosidase alfa, marketed by Genzyme [reference compound]”, in the data set with CIMPR [2], the “rhGAA that binds to the CIMPR” value was found to be 22% and the “rhGAA that did not bind to the CIMPR” value is 78%. Besides, in data set [3], the “concentration that saturates cellular receptors” value is “about 250 nM” and the “uptake efficiency constant (Kuptake)” value is 56 nM.

In the case of “Myozyme®: conventional rhGAA product containing alglucosidase alfa, marketed by Genzyme”, the “lysosome size and autophagic buildup compared to vehicle-treated mice” value in the data set with Gaa KO mice [4] (single fibers) is “did not show any significant difference”. Besides, in the data set with CIMPR [2], the “rhGAA that binds to the CIMPR” value is reported as 27% and the “rhGAA that did not bind to the CIMPR” value was 73%.

In the case of “ATB200: rhGAA with a high content of N-glycans bearing mono-M6P and bis-M6P, produced from a GA-ATB200 CHO cell line”, the Tm in data set [1] (pH 5.2) came to 67.3 °C. Further, in data set [1] (pH 7.4), the Tm is 56.2 °C and the “increase of melting temperature (Tm) on addition of AT2221” value was around 10 °C. Further, the Tm in data set [1] (pH 7.4 + 10 μM AT2221) turned out to be 61.6 °C. In data set [1] (pH 7.4 + 30 μM AT2221), the Tm was 62.9 °C. Also, in data set [1] (pH 7.4 + 100 μM AT2221), the Tm amounted to 66.0 °C. Further, in data set [5] (human), the “increase in distribution half-life (α-phase)” value is 40% and the “increase in partial AUC from time to maximum plasma concentration to 24 hours post-dose” value worked out at 42.2%. In addition, in data set [5], the “AUC ratio, signature peptide T50 vs T09” value was determined as 1.00; the “dose proportionality of ATB200 levels” value is given as “slightly greater-than-dose proportional”; the “plasma total GAA protein exposure, ERT-naive (Cohort 3) vs ERT-switch (Cohort 1)” value was “no statistically significant difference”. The “area with autophagic buildup” value with Gaa KO mice [4] (single fibers) is on record as “reduced to various degrees”. Further, in the data set on Gaa KO mice [4] (setting [8]), the “Fibers with Autophagy Buildup” value is 40-64%*. In the data set with CIMPR [6] (CIMPR-coated plates, varying rhGAA concentrations), the “binding to CIMPR compared with Lumizyme” value is “bound to CIMPR significantly better than Lumizyme®”. Moreover, the Kd in the data set with CIMPR [6] (M6P receptor plate binding assays, read-out: Ku, high-affinity binding to CIMPR) was in the range of 2 to 4 nM. Further, in data set [3], the “concentration that saturates cellular receptors” value was “about 20 nM” and the “uptake efficiency constant (Kuptake)” value is 2-3 nm. For the same compound, the “internalization into normal and Pompe fibroblast cells” value in data set [3] (compared with Lumizyme) was “internalized to a greater degree than the conventional rhGAA product Lumizyme®”.

Turning to “[199-arginine,223-histidine]prepro-α-glucosidase (human) [alglucosidase alfa, reference compound]”, in the data set with Gaa KO mice [4] (setting [8]), the “Fibers with Autophagy Buildup” value is above 90% and the “Fibers with Normal or Near-normal Appearance” value is below 10%. The effect on autophagy entry in the data set with Gaa KO mice [7] is listed as “modest”.
